The target of assay [1] is Fc(aMD4ds)T1 (human, UniProt P01857 104-330 = IgG part). The assay can be described thus: SPR.
Assay [2] addresses Fc(aMD4)T2 (human, UniProt P01857 104-330 = IgG part). Briefly: SPR. For orientation: Surface plasmon resonance follows binding to a sensor surface in real time, without labels.
Assay [3] addresses Fc(aMD4)T1 (human, UniProt P01857 104-330 = IgG part). Briefly: SPR.
Assay [4] addresses Fc(aMD4)B1 (human, UniProt P01857 104-330 = IgG part). The assay can be described thus: SPR.
For assay [5], the target named is Fc(aMD4)T3. Briefly: SPR.
Assay [6] concerns the target Fc(aMD4)B3 (human, UniProt P01857 104-330 = IgG part). The assay can be described thus: SPR.
Assay [7] has as its target Fc(aMD4)B2 (human, UniProt P01857 104-330 = IgG part). The assay can be described thus: SPR.
For assay [8], the target named is Fc(aMD4ds)B3 (human, UniProt P01857 104-330 = IgG part). The assay can be described thus: SPR.
The target of assay [9] is Fc(aMD4)M2 (human, UniProt P01857 104-330 = IgG part). The assay can be described thus: SPR.
Assay [10] deals with recombinant mouse TfR (mouse, UniProt Q62351 1-763). Briefly: ELISA. For orientation: An ELISA detects its analyte on a solid surface through an enzyme-linked reagent.

For orientation: Kd means the equilibrium constant for the complex coming apart.

Sequence of recombinant mouse TfR (Q62351 89-763): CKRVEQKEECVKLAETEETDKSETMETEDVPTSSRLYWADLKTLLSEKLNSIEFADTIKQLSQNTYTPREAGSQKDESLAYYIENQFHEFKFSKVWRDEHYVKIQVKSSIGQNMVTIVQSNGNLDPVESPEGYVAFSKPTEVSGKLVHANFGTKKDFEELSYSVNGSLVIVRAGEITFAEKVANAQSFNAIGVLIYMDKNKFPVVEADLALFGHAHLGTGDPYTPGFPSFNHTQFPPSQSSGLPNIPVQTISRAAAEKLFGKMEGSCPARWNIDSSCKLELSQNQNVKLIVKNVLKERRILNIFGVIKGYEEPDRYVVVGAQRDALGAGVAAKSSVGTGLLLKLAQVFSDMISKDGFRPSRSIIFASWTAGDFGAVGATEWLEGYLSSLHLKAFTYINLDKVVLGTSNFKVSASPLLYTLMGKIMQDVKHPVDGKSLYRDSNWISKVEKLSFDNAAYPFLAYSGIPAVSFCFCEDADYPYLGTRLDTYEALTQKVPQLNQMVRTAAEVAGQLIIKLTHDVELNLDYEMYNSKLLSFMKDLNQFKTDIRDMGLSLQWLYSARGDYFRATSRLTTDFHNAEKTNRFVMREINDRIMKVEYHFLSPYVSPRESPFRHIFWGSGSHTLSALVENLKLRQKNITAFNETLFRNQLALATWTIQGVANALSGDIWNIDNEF

B1: ectodomain fragment of human Met (MetECD, 1-931), biotinylated (domain or fragment)
chain: ECKEALAKSEMNVNMKYQLPNFTAETPIQNVILHEHHIFLGATNYIYVLNEEDLQKVAEYKTGPVLEHPDCFPCQDCSSKANLSGGVWKDNINMALVVDTYYDDQLISCGSVNRGTCQRHVFPHNHTADIQSEVHCIFSPQIEEPSQCPDCVVSALGAKVLSSVKDRFINFFVGNTINSSYFPDHPLHSISVRRLKETKDGFMFLTDQSYIDVLPEFRDSYPIKYVHAFESNNFIYFLTVQRETLDAQTFHTRIIRFCSINSGLHSYMEMPLECILTEKRKKRSTKKEVFNILQAAYVSKPGAQLARQIGASLNDDILFGVFAQSKPDSAEPMDRSAMCAFPIKYVNDFFNKIVNKNNVRCLQHFYGPNHEHCFNRTLLRNSSGCEARRDEYRTEFTTALQRVDLFMGQFSEVLLTSISTFIKGDLTIANLGTSEGRFMQVVVSRSGPSTPHVNFLLDSHPVSPEVIVEHTLNQNGYTLVITGKKITKIPLNGLGCRHFQSCSQCLSAPPFVQCGWCHDKCVRSEECLSGTWTQQICLPAIYKVFPNSAPLEGGTRLTICGWDFGFRRNNKFDLKKTRVLLGNESCTLTLSESTMNTLKCTVGPAMNKHFNMSIIISNGHGTTQYSTFSYVDPVITSISPKYGPMAGGTLLTLTGNYLNSGNSRHISIGGKTCTLKSVSNSILECYTPAQTISTEFAVKLKIDLANRETSIFSYREDPIVYEIHPTKSFISGGSTITGVGKNLNSVSVPRMVINVHEAGRNFTVACQHRSNSEIICCTTPSLQQLNLQLPLKTKAFFMLDGILSKYFDLIYVHNPVFKPFEKPVMISMGNENVLEIKGNDIDPEAVKGEVLKVGNKSCENIHLHSEAVLCTVPNDLLKLNSELNIEWKQAISSTVLGKVIVQPDQNF
modifications: biotin on the biotin acceptor sequence (BirA-mediated)
As to B1, the Kd was 73.4 nM in assay [1]; 401 nM in assay [2]; 75.8 nM in [3]; 10.8 nM in assay [4]; 652 nM in assay [5]; 4 nM in assay [6]. Moreover, the Kd was 79.1 nM in assay [7], 3.7 nM in [8] and 18.9 nM in assay [9].

B2: sTfR(aMD4) (antibody, V domains shown)
VH: EVQLVESGGGLVQPGNSLTLSCVASGFTFSNYGMHWIRQAPKKGLEWIAMIYYDSSKMNYADTVKGRFTISRDNSKNTLYLEMNSLRSEDTAMYYCAVPTSHYVVDVWGQGVSVTVSS
VL: DIQMTQSPASLSASLEEIVTITCQASQDIGNWLAWYQQKPGKSPQLLIYGATSLADGVPSRFSGSRSGTQFSLKISRVQVEDIGIYYCLQAYNTPWTFGGGTKLELK
Consider B2, for which the Kd in [10] amounted to 30.8 nM.

B3: dTfR(aMD4) (antibody, V domains shown)
VH: B2 VH
VL: B2 VL
Regarding B3, the dissociation constant (Kd) in [10] is 0.36 nM.

The values are drawn from article PMC9991925 (2022).
